Source: PMC11494953 (2024)

Target: EV-A71 2C protein (analyte of the SPR assay) (Enterovirus A71 (strain ), UniProt Q66478 1112-1440)
Test: SPR

B1: UBE3C protein (TP315110, ORIGENE) (enzyme)
chain: MFSFEGDFKTRPKVSLGGASRKEEKASLLHRTQEERRKREEERRRLKNAIIIQSFIRGYRDRKQQYSIQRSAFDRCATLSQSGGAFPIANGPNLTLLVRQLLFFYKQNEDSKRLIWLYQNLIKHSSLFVKQLDGSERLTCLFQIKRLMSLCCRLLQNCNDDSLNVALPMRMLEVFSSENTYLPVLQDASYVVSVIEQILHYMIHNGYYRSLYLLINSKLPSSIEYSDLSRVPIAKILLENVLKPLHFTYNSCPEGARQQVFTAFTEEFLAAPFTDQIFHFIIPALADAQTVFPYEPFLNALLLIESRCSRKSGGAPWLFYFVLTVGENYLGALSEEGLLVYLRVLQTFLSQLPVSPASASCHDSASDSEEESEEADKPSSPEDGRLSVSYITEECLKKLDTKQQTNTLLNLVWRDSASEEVFTTMASVCHTLMVQHRMMVPKVRLLYSLAFNARFLRHLWFLISSMSTRMITGSMVPLLQVISRGSPMSFEDSSRIIPLFYLFSSLFSHSLISIHDNEFFGDPIEVVGQRQSSMMPFTLEELIMLSRCLRDACLGIIKLAYPETKPEVREEYITAFQSIGVTTSSEMQQCIQMEQKRWIQLFKVITNLVKMLKSRDTRRNFCPPNHWLSEQEDIKADKVTQLYVPASRHVWRFRRMGRIGPLQSTLDVGLESPPLSVSEERQLAVLTELPFVVPFEERVKIFQRLIYADKQEVQGDGPFLDGINVTIRRNYIYEDAYDKLSPENEPDLKKRIRVHLLNAHGLDEAGIDGGGIFREFLNELLKSGFNPNQGFFKTTNEGLLYPNPAAQMLVGDSFARHYYFLGRMLGKALYENMLVELPFAGFFLSKLLGTSADVDIHHLASLDPEVYKNLLFLKSYEDDVEELGLNFTVVNNDLGEAQVVELKFGGKDIPVTSANRIAYIHLVADYRLNRQIRQHCLAFRQGLANVVSLEWLRMFDQQEIQVLISGAQVPISLEDLKSFTNYSGGYSADHPVIKVFWRVVEGFTDEEKRKLLKFVTSCSRPPLLGFKELYPAFCIHNGGSDLERLPTASTCMNLLKLPEFYDETLLRSKLLYAIECAAGFELS
- Kd: 72.1 µM
